Experiments:
SNX27_PDZ [1] = assay: nHU-MS, SNX27_PDZ bait, total SH-SY5Y extracts; format: binding, human
Method: The empty His6-AviTag-MBP-TEV vector was used to produce biotinylated MBP for control experiments. Proteins were coexpressed with BirA biotin ligase (PET21a-BirA, Addgene, no. 20857) in Escherichia coli BL21(DE3) cells. At isopropyl-β-D-thiogalactopyranoside (IPTG) induction (1 mM IPTG at 18°C overnight), 50 μM biotin was added to the media. Harvested cells were lysed in a buffer containing 50 mM tris (pH 7.5), 150 to 300 mM NaCl, 50 μM biotin, 2 mM β-mercaptoethanol, cOmplete EDTA-free protease inhibitor cocktail (Roche, Basel, Switzerland), 1% Triton X-100, and trace amount of deoxyribonuclease, ribonuclease, and lysozyme. Lysates were frozen at −20°C before further purification steps. Lysates were sonicated and centrifuged for clarification. Expressed proteins were captured on in-house prepacked Ni-IDA (Protino Ni-IDA Resin, Macherey-Nagel, Duren, Germany) columns and were washed with at least 10 column volumes of cold wash buffer [50 mM tris (pH 7.5), 150 mM NaCl, and 2 mM β-mercaptoethanol] before elution with 250 mM imidazole. The Ni elution was collected directly on a preequilibrated amylose column (amylose high flow resin, New England Biolabs, Ipswich, MA). Amylose column was washed with 5 column volumes of cold wash buffer before fractionated elution in a buffer containing 25 mM Hepes (pH 7.5), 150 mM NaCl, 1 mM TCEP, 10% glycerol, 5 mM maltose, and cOmplete EDTA-free protease inhibitor cocktail. The concentration of proteins was determined by their ultraviolet absorption at 280 nm before aliquots were snap-frozen in liquid nitrogen and stored at −80°C.
For saturating streptavidin resin with biotinylated peptides or biotin, 50 μl of streptavidin resin was mixed with biotin or peptide at 40 to 60 μM concentration in 6 to 6.5 resin volume for 60 min. To saturate streptavidin resin with biotinylated proteins, 50 μl of streptavidin resin (Streptavidin Sepharose High Performance, Cytiva) was mixed with biotinylated MBP or MBP-PDZ at 40 to 50 μM concentration in 20× resin volume for 60 min. After saturation, resins were washed a single time [10 resin volume, holdup buffer: 50 mM tris (pH 7.5), 300 mM NaCl, and 1 mM TCEP, 0.22-μm filtered] and were depleted with biotin (10 resin volume, 10 min, holdup buffer supplemented with 100 μM biotin). Last, resins were washed two times (10 resin volume, holdup buffer).
For single-point nHU experiments carried out at ~10 μM bait concentration, 50 μl of saturated streptavidin resin was mixed with 200 μl of cell lysate (2 mg/ml). Titration experiments were carried out by mixing control and bait-saturated resin and keeping the total resin volume constant; e.g., ~5 μM bait concentration can be achieved by mixing 25 μl of bait-saturated streptavidin resin with 25 μl of control resin and 200 μl of cell lysate (2 mg/ml). Control and bait-saturated resins were prepared in larger amounts, and a serial dilution was prepared with these presaturated resins to achieve different resin ratios.
Unless specified elswhere, the nHU mixture was incubated at 4°C for 2 hours. After the incubation ended, the resin was separated from the supernatant by a brief centrifugation (15 s, 2000 g). Then, half of the supernatant was removed by pipetting without any delay to avoid any resin contamination; e.g., 100 μl of supernatant is collected if 200 μl of cell lysate was used as analyte. Alternatively, the supernatant can be centrifuged an additional time to clarify it further, removing any possible resin contamination. […]

SNX27_PDZ [2] = assay: AP-MS control pull-down on leftover resin, SNX27_PDZ bait, total SH-SY5Y extracts; format: binding, human; settings: n = 6
Method: Leftover beads from nHU-MS experiments were washed three times immediately after the separation of the supernatant [10 resin volume in buffer containing 50 mM tris (pH 8.5), 150 mM NaCl, 1% Triton X-100, 10× cOmplete EDTA-free protease inhibitor cocktail, 2 mM EDTA, and 1 mM TCEP]. Then, the beads were washed two times [10 resin volume buffer containing 50 mM tris (pH 8.5), 150 mM NaCl, and 1 mM TCEP]. Last, captured protein was eluted from the resin in two steps, and the eluted fractions were pooled. For each elution, the beads were incubated for 30 min with three resin volume buffer containing 20 mM tris (pH 8.5), 100 mM NaCl, 500 μM TCEP, and 8 M urea. Between each step, the beads were separated by mild centrifugation, and the supernatant was removed by gentle pipetting.
The nHU samples were precipitated with trichloroacetic acid (TCA) 20% overnight at 4°C and centrifuged at 14,000 rpm for 10 min at 4°C. The protein pellets were washed twice with 1 ml of cold acetone and air-dried. […]
Samples were analyzed using an Ultimate 3000 nano-RSLC coupled in line via a nano-electrospray ionization source, with an LTQ-Orbitrap ELITE mass spectrometer (Thermo Fisher Scientific, San Jose, CA) or with the Orbitrap Exploris 480 mass spectrometer (Thermo Fisher Scientific, Bremen, Germany) equipped with a high field asymmetric ion mobility spectrometry (FAIMS) module. […]

full-length SNX27 = assay: nHU-WB titration, full-length SNX27 bait, total Jurkat extracts; format: binding; settings: partial activity model (Eq. 4)
Method: The empty His6-AviTag-MBP-TEV vector was used to produce biotinylated MBP for control experiments. Proteins were coexpressed with BirA biotin ligase (PET21a-BirA, Addgene, no. 20857) in Escherichia coli BL21(DE3) cells. At isopropyl-β-D-thiogalactopyranoside (IPTG) induction (1 mM IPTG at 18°C overnight), 50 μM biotin was added to the media. […] Lysates were frozen at -20°C before further purification steps. Lysates were sonicated and centrifuged for clarification. Expressed proteins were captured on in-house prepacked Ni-IDA (Protino Ni-IDA Resin, Macherey-Nagel, Duren, Germany) columns and were washed with at least 10 column volumes of cold wash buffer [50 mM tris (pH 7.5), 150 mM NaCl, and 2 mM β-mercaptoethanol] before elution with 250 mM imidazole. The Ni elution was collected directly on a preequilibrated amylose column (amylose high flow resin, New England Biolabs, Ipswich, MA). […] The concentration of proteins was determined by their ultraviolet absorption at 280 nm before aliquots were snap-frozen in liquid nitrogen and stored at -80°C. […] To saturate streptavidin resin with biotinylated proteins, 50 μl of streptavidin resin (Streptavidin Sepharose High Performance, Cytiva) was mixed with biotinylated MBP or MBP-PDZ at 40 to 50 μM concentration in 20× resin volume for 60 min. […] Last, resins were washed two times (10 resin volume, holdup buffer). […]

pKapp_HU_not_filtered (SNX27_PDZ [1]; apparent, Eq. 2, not filtered for significance) | pKapp_significant_binders_HU (SNX27_PDZ [1]; apparent, Eq. 2, significant binders (1 σ, P < 0.05)) | Molecule | BI_HU (SNX27_PDZ [1]; n = 6) | FC_HU (log2 fold change) (SNX27_PDZ [1]; n = 6) | Ratio_HU (SNX27_PDZ [1]; n = 6) | FC_AP (log2 fold change) (SNX27_PDZ [2]) | Ratio_AP (SNX27_PDZ [2]) | f (active fraction) (full-length SNX27)
4.74 | 4.74 | CNBP: Cellular nucleic acid-binding protein (protein, UniProt P62633 2-177, looked up) CCHC-type zinc finger nucleic …: SSNECFKCGRSGHWARECPTGGGRGRGMRSRGRGGFTSDRGFQFVSSSLPDICYRCGESGHLAKDCDLQEDACYNCGRGGHIAKDCKEPKREREQCCYNCGKPGHLARDCDHADEQKCYSCGEFGHIQKDCTKVKCYRCGETGHVAINCSKTSEVNCYRCGESGHLARECTIEATA | 0.3538 | -0.63 | 0.6462 | -0.3792 | 0.7689 | –
– | – | full-length SLC16A1: monocarboxylate transporter 1, endogenous full-length prey (protein, UniProt P53985 1-500, looked up, full-length, monocarboxylate transporter 1, endogenous full-length prey) MPPAVGGPVGYTPPDGGWGWAVVIGAFISIGFSYAFPKSITVFFKEIEGIFHATTSEVSWISSIMLAVMYGGGPISSILVNKYGSRIVMIVGGCLSGCGLIAASFCNTVQQLYVCIGVIGGLGLAFNLNPALTMIGKYFYKRRPLANGLAMAGSPVFLCTLAPLNQVFFGIFGWRGSFLILGGLLLNCCVAGALMRPIGPKPTKAGKDKSKASLEKAGKSGVKKDLHDANTDLIGRHPKQEKRSVFQTINQFLDLTLFTHRGFLLYLSGNVIMFFGLFAPLVFLSSYGKSQHYSSEKSAFLLSILAFVDMVARPSMGLVANTKPIRPRIQYFFAASVVANGVCHMLAPLSTTYVGFCVYAGFFGFAFGWLSSVLFETLMDLVGPQRFSSAVGLVTIVECCPVLLGPPLLGRLNDMYGDYKYTYWACGVVLIISGIYLFIGMGINYRLLAKEQKANEQKKESKEEETSIDVAGKPNEVTKAAESPDQKDTDGGPKEEESPV | – | – | – | – | – | 0.9
